Reference: the DeepSol protein solubility set

assay: soluble on expression in E. coli; label from the status in PepcDB or PDB records

| Sequence | soluble on expression in E. coli |
| --- | --- |
| MQQDVSREHTINNGSSMADHDEHPIEQKEFYMLIGLDIGGTKIEICVLDKQGSMLYRQRIATPDNYSQFVDCVCSLIVDAEQATQPVDSIGIGLPGAVSPVTGLIKNANCTFLNGQDLSSDLQYRLGREVKLANDANCFALSEAIDGAGKESMVVFGAILGTGCGGSIVVNRQVLVGPNAICGEWGHNPLPGYHLEQDGAARYCYCGRQNCIERFISGSGFQDSYQALTGECITASEIMKRYKQQEPEAIHCYTQLIDHMARSFAGLVNVLDPDIIVLGGGLSNIDELYRDLPTATARHVFSDSAQVHFAKAVFGDSSGIRGAAWL | not soluble |
| MQYEKVKPPENGEKIRYENGKLIVPDNPIIPYFEGDGIGKDVVPAAIRVLDAAADKIGKEVVWFQVYAGEDAYKLYGNYLPDDTLNAIKEFRVALKGPLTTPVGGGYRSLNVTIRQVLDLYANVRPVYYLKGVPSPIKHPEKVNFVIFRENTEDVYAGIEWPRGSEEALKLIRFLKNEFGVTIREDSGIGIKPISEFATKRLVRMAIRYAIENNRKSVTLVHKGNIMKYTEGAFRDWGYEVAKQEFGEYCITEDELWDKYGGKQPEGKIVVKDRIADNMFQQILTRTDEYDVIALPNLNGDYLSDAAAALIGGLGIAPGSNIGDGIGVFEPVHGSAPKYAGQNKVNPTAEILTGALMFEYIGWKDASEMIKKAVEMTISSGIVTYDIHRHMGGTKVGTREFAEAVVENLQSL | soluble |
| MGTRSKRSERCARCRLHIHRCVCPAMPRYSLATRVVLVMHHREYPKTTATGPLALEILPNSELRIHGEPGRSLNLSDLDTPARRILLLYPGDDVPVLDRELLERDGRPVTLVVPDGTWRQASRMGRRLPGLARAEMVRLPPGPPTEWGVRRENHPQGLATFEAIARALGIIESPDVQSGMEHLFRLMVRQTLGARGCAVDRDLEHHHHHH | soluble |
| MTKRKNASNAGSSPKKEKKSETFAALKSVKAEKRPAADSSDSEPEDFEEEQITHTEAEETRNEDNGQAIYEPDVMRPLIESFLEFLVQRQSETSTVHNMENKVAEWAETRRDDNIDAGLFVLDFRKYLKSAVKFKNLQMNDSCAAISTYLNSEKSLVEYKSMPDRPPTKIQLYIKKHQIMLKGIGGEPMKNAYKAMNADTEGAKELDELLREASLQYIPQLQEFLDTHPNLTEEQKRSIVNKMKMLNKKYNSKEISSTPKKRSSKKDPETAFSLFCRTKNDKYRDLSDEEREIKLQKKFEKLPAAQKDIYESLAISM | soluble |
| HQYSDLTINPSLGPASPTSFDDLATYRFEQWVNNLDITRAFDGLFGVPLQVSAGLEHRWERFRTFSGDAQAYQVGGYRFPASLPNGQASPLAGQLASIAAQAAAVISPQDATRLQRNNYAAYVDFGITPIEPLFVDLALRAEHFDDDSGNTVSAKLNSRYEFTDTFAVRGTVGTGFRAPSLTQTGYSISDNRVGAAPDGTIVPAVTRIAPVNSALAQALGATTLDPEKSRNLGVGVTWQPAPRTSLTADAYWIEIADRIARTESLYGPALAPTLTAQGVDTSTWTSYYANAFDTRTRGLDIVLD | not soluble |
| AQSRTLLAGIVQQQQQLLDVVKRQQELLRLTVWGTKNLQTRVTAIEKYLKDQAQLNAWGAAFRQVAHTTVPWPNASLTPKWNNETWQEWERKVDFLEENITALLEEAQIQQEKNMYELQKLNS | soluble |
| MHHHHHHSSGVDLGTENLYFQSMTKTWTLKKHFVGYPTNSDFELKTSELPPLKNGEVLLEALFLTVDPYMRVAAKRLKEGDTMMGQQVAKVVESKNVALPKGTIVLASPGWTTHSISDGKDLEKLLTEWPDTIPLSLALGTVGMPGLTAYFGLLEICGVKGGETVMVNAAAGAVGSVVGQIAKLKGCKVVGAVGSDEKVAYLQKLGFDVVFNYKTVESLEETLKKASPDGYDCYFDNVGGEFSNTVIGQMKKFGRIAICGAISTYNRTGPLPPGPPPEIVIYQELRMEAFVVYRWQGDARQKALKDLLKWVLEGKIQYKEYIIEGFENMPAAFMGMLKGDNLGKTIVKA | soluble |
| MSKKPTSAYVHIPFCTQICYYCDFSKVFIKNQPVDAYLEALIKEFNDYYQIKDLQTLYIGGGTPTAISGEQLDYLLTNLSKNLNLNMLEEFTIEANPGDLTPDKVAVLKQSAVNRVSLGVQTFNNKHLKQIGRGHNEAQIYESIDSLKSAGFDNISIDLIYALPNQTITDVKENVAKALALDIPHLSLYNLILEHHTVFMNKMRRGKLNLPAEDLEAEMFDYIISEMEDHGFEHYEISNFTKPGFESRHNLMYWNNAEYFGCGAGASGYVDGIRYRNRGPIQHYLKAIKEKRQARFQEERLSQSEKMEEELFLGLRKKSGISIQRFEDKFGLPLMEVYGQAIDDLEKDGLILVEKDCIRMSKKGLFLGDTVAEKFILEQK | not soluble |
